Laboratory results taken from patent publication US12043852.

Target: omega-dCas9 clone 4 (evolved SpCas9) D10A,H840A,E1219V; residues I122 and D182 also mutated, substitutions not stated (Streptococcus pyogenes) (UniProt Q99ZW2)
Test: cell_activity
Conditions: E. coli activation

## GGAGCCCACCGAGUACCUGG / GGAGCCCACCGAGTACCTGGAGG / CCTCCAGGTACTCGGTGGGCTCC [Doench 2 sgRNA (spacer) ; Doench 2 target, AGG PAM]
PAM AGG
  activity (luciferase activity): 238

## GGAGCCCACCGAGUACCUGG / GGAGCCCACCGAGTACCTGGGAG / CTCCCAGGTACTCGGTGGGCTCC [Doench 2 sgRNA (spacer) ; Doench 2 target, GAG PAM]
PAM GAG
  activity (luciferase activity): 186

## GGAGCCCACCGAGUACCUGG / GGAGCCCACCGAGTACCTGGGTG / CACCCAGGTACTCGGTGGGCTCC [Doench 2 sgRNA (spacer) ; Doench 2 target, GTG PAM]
PAM GTG
  activity (luciferase activity): 120
